Test results from PMC10144703, “Molecular Mechanism of Sirtuin 1 Inhibition by Human Immunodeficiency Virus 1 Tat Protein” (Life, 2023).
Where no end group is shown, it is not given here.

What was measured:
[1] = molecular target: T1, human mini-Sirt1 (aa 183-505-(GGGS)2-641-665) (Homo sapiens, UniProt Q96EB6); assay: FdL assay, mini-Sirt1; format: biochemical; details: FdL-1 at substrate Km, 15% (v/v) DMSO, n = 3
T1 construct: aa 183-505-(GGGS)2-641-665; made in house; host or cells: E. coli CodonPlus(DE3)
T1 sequence (Q96EB6 with tags, fused parts or gaps limits assumed): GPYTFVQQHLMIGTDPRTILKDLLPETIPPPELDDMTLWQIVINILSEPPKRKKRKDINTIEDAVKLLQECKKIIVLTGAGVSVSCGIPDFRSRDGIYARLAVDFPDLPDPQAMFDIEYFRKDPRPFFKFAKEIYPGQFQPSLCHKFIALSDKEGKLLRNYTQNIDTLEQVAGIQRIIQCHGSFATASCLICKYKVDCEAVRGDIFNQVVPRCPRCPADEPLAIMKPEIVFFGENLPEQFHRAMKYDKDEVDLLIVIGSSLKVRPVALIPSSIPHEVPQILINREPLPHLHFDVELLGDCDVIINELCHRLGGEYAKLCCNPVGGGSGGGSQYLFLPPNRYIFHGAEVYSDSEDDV
Source text: (§1) A human mini-Sirt1 construct (aa 183-505-(GGGS)2-641-665), as described in [27], was generated in a modified pET-19b with a TEV cleavage site. This construct and human full-length Sirt1 (fl-Sirt1) in pET-15b, Sirt1-(183-664) and Sirt1-(214-664) in pET-15b, mini-Sirt1-∆SBD (aa 214-505-(GGGS)2-641-665) and mini-Sirt1-∆ESA (aa 183–505) in a modified pET-19b with TEV cleavage site, Sirt2-(43-356) in a modified pET-19b with a His6-Sumo tag, Sirt3-(93-399) in a modified pET-32a with Trx-His6 tag and TEV cleavage site, hSirt3-(118-399) in pVFT3S (Sungkyunkwan University, Seoul, Republic of Korea) with His6-Trx tag and TEV cleavage site, Sirt5-(34-302) in pET-151/D-TOPO, and Sirt6-(1-355) in pQE80L.1 were purified as described. Shortly, proteins were expressed at 20 °C (mini-Sirt1 constructs at 16 °C) in E. coli CodonPlus(DE3), cell lysates were cleared by centrifugation, and proteins were purified via affinity chromatography using a nickel NTA column. After digestion with thrombin or TEV protease, proteins were re-run over the nickel NTA column, pooled, and concentrated. The samples were, then, subjected either directly to size exclusion chromatography in 50 mM Tris/HCl, pH 8.0, 150 mM NaCl, 1 mM TCEP, or to an ion exchange chromatography followed by size exclusion chromatography. Purified proteins (yield 1—4 mg/L expression culture) were concentrated to 12–18 mg/mL and shock frozen for storage at −80 °C.
(§2) For sirtuin deacetylation activity measurements, we used two well-characterized assays, a coupled enzymatic assay, and the so-called FdL assay, respectively.
Km values for FdL-1 were determined in the presence of 3 mM NAD^+ and Km values for NAD^+ in presence of 0.5 mM FdL-1 peptide. […] Reactions were incubated for 20 min, followed by a 1:1 addition of developer (2 mM NAM and 10 mg/mL trypsin in assay buffer). After incubation for 45 min at room temperature, fluorescence was measured with a FluoDia T70 (Photon Technology International Inc., Birmingham, NJ, USA) with an excitation wavelength of 365 nm and emission wavelength of 465 nm. […]

[2] = molecular target: T2, human full-length Sirt1 (fl-Sirt1) (Homo sapiens, UniProt Q96EB6); assay: Continuous coupled enzymatic sirtuin activity assay, fl-Sirt1; format: biochemical; details: coupled-enzyme assay, n = 2
T2 construct: human full-length Sirt1 (fl-Sirt1) in pET-15b; made in house; host or cells: E. coli CodonPlus(DE3)
T2 sequence (Q96EB6 1-747): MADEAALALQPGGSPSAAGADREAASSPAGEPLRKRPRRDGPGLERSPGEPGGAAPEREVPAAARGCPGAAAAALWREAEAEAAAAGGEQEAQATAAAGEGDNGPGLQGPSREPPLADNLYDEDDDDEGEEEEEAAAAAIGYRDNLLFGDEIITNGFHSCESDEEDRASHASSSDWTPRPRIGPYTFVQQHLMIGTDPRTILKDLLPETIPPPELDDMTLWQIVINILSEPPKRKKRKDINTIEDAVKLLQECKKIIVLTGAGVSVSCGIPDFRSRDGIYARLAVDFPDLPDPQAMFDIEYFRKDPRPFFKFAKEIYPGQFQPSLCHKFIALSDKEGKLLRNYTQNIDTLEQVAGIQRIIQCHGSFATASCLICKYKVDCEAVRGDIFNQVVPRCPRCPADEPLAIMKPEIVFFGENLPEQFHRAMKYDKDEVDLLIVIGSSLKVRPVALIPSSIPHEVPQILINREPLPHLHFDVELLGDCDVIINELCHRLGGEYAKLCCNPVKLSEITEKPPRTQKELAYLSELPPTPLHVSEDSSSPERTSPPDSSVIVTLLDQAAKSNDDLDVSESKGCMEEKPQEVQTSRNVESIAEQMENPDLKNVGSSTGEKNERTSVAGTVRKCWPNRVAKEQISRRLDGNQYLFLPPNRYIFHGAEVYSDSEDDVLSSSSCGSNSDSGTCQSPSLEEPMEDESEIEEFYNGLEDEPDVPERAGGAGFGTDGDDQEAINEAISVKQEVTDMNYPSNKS
Source text: A human mini-Sirt1 construct (aa 183-505-(GGGS)2-641-665), as described in [27], was generated in a modified pET-19b with a TEV cleavage site. This construct and human full-length Sirt1 (fl-Sirt1) in pET-15b, Sirt1-(183-664) and Sirt1-(214-664) in pET-15b, mini-Sirt1-∆SBD (aa 214-505-(GGGS)2-641-665) and mini-Sirt1-∆ESA (aa 183–505) in a modified pET-19b with TEV cleavage site, Sirt2-(43-356) in a modified pET-19b with a His6-Sumo tag, Sirt3-(93-399) in a modified pET-32a with Trx-His6 tag and TEV cleavage site, hSirt3-(118-399) in pVFT3S (Sungkyunkwan University, Seoul, Republic of Korea) with His6-Trx tag and TEV cleavage site, Sirt5-(34-302) in pET-151/D-TOPO, and Sirt6-(1-355) in pQE80L.1 were purified as described. […]
Continuous coupled enzymatic sirtuin activity assays were conducted as described. […] Reactions were monitored for 1 h at room temperature by absorption spectroscopy at 340 nm in a UV/vis plate reader (BioTek). The slope for the linear range (typically 5–25 min) was evaluated after background correction with measurements without NAD^+. Additional control reactions were run by either omitting enzyme or omitting peptide substrate to ensure that the signal measured reflects the NAD+-dependent deacetylation activity of the sirtuin.

[3] = molecular target: T3, mini-Sirt1 (Homo sapiens, UniProt Q96EB6); assay: Deacetylation of ac-Tat-46–54 as substrate by mini-Sirt1; format: biochemical
T3 construct: aa 183-505-(GGGS)2-641-665; made in house; host or cells: E. coli CodonPlus(DE3)
T3 sequence (Q96EB6 with tags, fused parts or gaps limits assumed): T1 sequence (Q96EB6 with tags, fused parts or gaps limits assumed)
Description: as §2
Continuous coupled enzymatic sirtuin activity assays were conducted as described. […] For assays with Tat peptides, 5% (v/v) DMSO was added to all reactions to enhance peptide solubility. Reactions were monitored for 1 h at room temperature by absorption spectroscopy at 340 nm in a UV/vis plate reader (BioTek). The slope for the linear range (typically 5–25 min) was evaluated after background correction with measurements without NAD^+. Additional control reactions were run by either omitting enzyme or omitting peptide substrate to ensure that the signal measured reflects the NAD+-dependent deacetylation activity of the sirtuin.

[4] = test system: human Sirt3-(118-399); assay: Crystal structure of Sirt3/Tat peptide complexes; format: binding; details: Sirt3/Tat-37–59 at 1.95 Å; Sirt3/ac-Tat-46–54 at 1.65 Å
Description: For crystallization of the Sirt3 and Tat peptide complexes, 10 mg/mL human Sirt3-(118-399) in 20 mM Tris/HCl, pH 8.0, 150 mM NaCl, 5% (v/v) glycerol, 1 mM TCEP were incubated with 2 mM ac-Tat-46-54 or Tat-37-59 (the latter in 10% (v/v) DMSO) for 60 min at 20 °C. Both complexes were crystallized using the sitting-drop vapor-diffusion method at 20 °C with 100 mM MES, pH 6.0, 30% (w/v) PEG 200, 5% (w/v) PEG 3000 as reservoir solution for Sirt3/ac-Tat-46-54 and 100 mM CHES, pH 9.0, 20% (w/v) PEG 8000 for Sirt3/Tat-37-59. Crystals were cryoprotected with the respective reservoir solution supplemented with 25% (v/v) glycerol and flash-frozen in liquid nitrogen.
Diffraction data were collected at BESSY II, beamline MX14.1 operated by Helmholtz Zentrum Berlin (Berlin, Germany) at 0.9184 Å wavelength. Indexing, scaling, and merging of the Sirt3/ac-Tat-46-54 complex data were performed with XDSAPP [37]. The Sirt3/Tat-37–59 complex data were indexed and integrated with DIALS [38] and further processed with CCP4 programs Rebatch, Pointless, Aimless, and cTruncate, with 5% of the reflections assigned to Rfree with Uniqueify. The complex structures were phased by molecular replacement with PHASER [40] and using a Sirt3/ac-ACS/carba-NAD (PDB ID 4FVT) and a Sirt3/ADPr complex (PDB ID 4BVB), respectively, as a search model. […]

[5] = molecular target: T2, human full-length Sirt1 (fl-Sirt1); assay: FdL deacetylation assay, fl-Sirt1; format: biochemical; details: FdL assay, 100 µM FdL-1, 500 µM NAD^+, pH 7.8, 37 °C; n = 2; read-out: IC50, fl-Sirt1, truncated Tat-Cys^− constructs
Source text: as §1, with “Purified proteins (yield 1—4 mg/L expression culture) were concentrated to 12–18 mg/mL and shock frozen for storage at −80 °C.” left out

[6] = test system: Sirt1; details: FdL assay, wildtype Tat; ref [9]; read-out: IC50, Sirt1 (previously reported); cited from earlier work

## SYGRKKRRQ [Tat-46–54]
[1]; 37 °C, pH 7.8, ± s.d., read-out: IC50 (FdL assay), mini-Sirt1, non-acetylated Tat-46–54
  IC50: 131 ± 88.1 µM

## Tat-49–60: synthetic non-acetylated Tat fragment, residues 49–60 (RKKRRQRRRPSQ)
[1]; dose-dependent
  inhibition of mini-Sirt1 by synthetic Tat peptides (Figure 2F): weaker inhibition
[1]; titration
  inhibition of mini-Sirt1, titration (Figure 2G): neither Tat-31–49 nor Tat-49–60 alone was sufficient for significant inhibition

## ac-Tat-46–54: Lys50-acetylated Tat-46–54 peptide (SYGRK(Ac)KRRQ)
[2]; 100 µM ac-p53 as basal substrate
  effect on fl-Sirt1 activity upon addition to assay containing p53-peptide: expected increase of activity
[2]; fl-Sirt1, 100 µM ac-p53 as basal substrate
  onset of inhibition upon addition to assay containing p53-peptide: no indications of instant or delayed onset of inhibition
[3]; Michaelis–Menten kinetics, mini-Sirt1, compared with ac-p53-Lys382, n = 3
  Sirt1-dependent deacetylation (as substrate): efficient Sirt1-dependent deacetylation, even slightly more efficient than for its standard substrate peptide ac-p53-Lys382
[3]; time-course for deacetylation by mini-Sirt1, n = 3
  inhibitory effects at later time points of the deacetylation assay: did not observe any inhibitory effects at later time points
[4]
  binding site/mode in Sirt3 crystal structure: inserted in the substrate binding groove in the typical, β-sheet-like fashion

## residues 21–63 of Tat-Cys^−: construct also lacking the N-terminal region from aa 1–20 (ASNRAHAKKSAYHSQVAFITKGLGISYGRKKRRQRRRPSQGGQ)
[5]
  IC50: ~30 µM

## wildtype Tat: HIV1 transactivator of transcription protein, wildtype, as previously reported
[6]
  IC50: 3.5 µM
